Assay [1] has as its target mouse SNX5 PX domain (residues 20–180) (mouse) (UniProt Q9D8U8). Description: SPR; Biacore T100; PX5 immobilised on a CM5 chip, GST-IncE 109-132 WT or mutants flowed over; 25 °C; 20 mM Na HEPES pH 7.5, 200 mM NaCl, 0.005% Triton-X100; 1:1 steady state analysis. In general terms: SPR reads the build-up and loss of mass on a sensor chip optically.
Assay [2] shares this target. Description: SPR; Biacore T100; PX5 immobilised on a CM5 chip, IncE 109-132 peptide flowed over (33 nM-2.7 uM); 25 °C; 20 mM Na HEPES pH 7.5, 200 mM NaCl, 0.005% Triton-X100; 1:1 fitting model.

One may read the Kd as the constant that tells how readily two partners part at equilibrium. The low end stands for tighter binding, the high end for weaker binding.

Chain of UniProt Q9D8U8 (Q9D8U8 20-180): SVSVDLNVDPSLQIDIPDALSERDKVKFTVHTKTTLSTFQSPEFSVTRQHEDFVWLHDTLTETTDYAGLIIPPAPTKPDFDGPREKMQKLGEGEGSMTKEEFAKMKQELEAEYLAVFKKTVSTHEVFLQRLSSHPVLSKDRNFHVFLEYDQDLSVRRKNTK

In turn, “GST-IncE^109–132 K118A (domain or fragment)” displayed a Kd in assay [1] of 0.79 µM.
In assay [1], “GST-IncE^109–132 V127A (domain or fragment)” registered a Kd of 0.98 µM.
Turning to “GST-IncE^109–132 WT (domain or fragment)”, the dissociation constant Kd in assay [1] worked out at 0.39 µM.
In assay [2], IncE^109–132 peptide returned a Kd of 0.54 µM.

These data come from PMC5661634.
